Drawing on patent US20160272683A1 (Novo Nordisk, published 2016), this text covers IC50 for twelve molecules.

T1: human calcitonin receptor (human, UniProt P30988 25-474)
T1 construct: whole, on cells; also called hCT-R; hCTR
T1 sequence (looked up): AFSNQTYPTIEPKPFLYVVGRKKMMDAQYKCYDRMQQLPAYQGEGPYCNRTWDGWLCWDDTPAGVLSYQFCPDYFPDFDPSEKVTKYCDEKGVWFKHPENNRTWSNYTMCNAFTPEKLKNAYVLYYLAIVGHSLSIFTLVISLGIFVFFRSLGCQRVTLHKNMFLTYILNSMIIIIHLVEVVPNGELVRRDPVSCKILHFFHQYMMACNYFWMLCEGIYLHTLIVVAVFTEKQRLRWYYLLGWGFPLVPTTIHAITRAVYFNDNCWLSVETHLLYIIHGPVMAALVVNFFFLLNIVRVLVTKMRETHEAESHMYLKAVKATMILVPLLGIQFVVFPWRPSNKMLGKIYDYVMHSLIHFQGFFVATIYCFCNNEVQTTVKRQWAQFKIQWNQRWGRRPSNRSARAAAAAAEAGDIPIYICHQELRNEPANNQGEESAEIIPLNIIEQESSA

B1: [N-terminal(C18 diacid-gGlu), des1, 5V, 9V, 10V, 20V, 30S, 31G]mimylin (peptide)
peptide: {C18 diacid-γGlu}-ASEVSTAVVGRLSAELHEVATLPRTETGSGSP-NH2
SMILES: CC(C)C[C@H](NC(=O)[C@H](CCCNC(=N)N)NC(=O)CNC(=O)[C@@H](NC(=O)[C@@H](NC(=O)[C@H](C)NC(=O)[C@@H](NC(=O)[C@H](CO)NC(=O)[C@@H](NC(=O)[C@H](CCC(=O)O)NC(=O)[C@H](CO)NC(=O)[C@H](C)NC(=O)CC[C@H](NC(=O)CCCCCCCCCCCCCCCCC(=O)O)C(=O)O)C(C)C)[C@@H](C)O)C(C)C)C(C)C)C(=O)N[C@@H](CO)C(=O)N[C@@H](C)C(=O)N[C@@H](CCC(=O)O)C(=O)N[C@@H](CC(C)C)C(=O)N[C@@H](Cc1c[nH]cn1)C(=O)N[C@@H](CCC(=O)O)C(=O)N[C@H](C(=O)N[C@@H](C)C(=O)N[C@H](C(=O)N[C@@H](CC(C)C)C(=O)N1CCC[C@H]1C(=O)N[C@@H](CCCNC(=N)N)C(=O)N[C@H](C(=O)N[C@@H](CCC(=O)O)C(=O)N[C@H](C(=O)NCC(=O)N[C@@H](CO)C(=O)NCC(=O)N[C@@H](CO)C(=O)N1CCC[C@H]1C(N)=O)[C@@H](C)O)[C@@H](C)O)[C@@H](C)O)C(C)C
B2: [N-terminal(C18 diacid-gGlu), des1, 9V, 30S, 31G]mimylin (peptide)
peptide: {C18 diacid-γGlu}-ASELSTAVLGRLSAELHELATLPRTETGSGSP-NH2
SMILES: CC(C)C[C@H](NC(=O)[C@H](CCC(=O)O)NC(=O)[C@H](Cc1c[nH]cn1)NC(=O)[C@H](CC(C)C)NC(=O)[C@H](CCC(=O)O)NC(=O)[C@H](C)NC(=O)[C@H](CO)NC(=O)[C@H](CC(C)C)NC(=O)[C@H](CCCNC(=N)N)NC(=O)CNC(=O)[C@H](CC(C)C)NC(=O)[C@@H](NC(=O)[C@H](C)NC(=O)[C@@H](NC(=O)[C@H](CO)NC(=O)[C@H](CC(C)C)NC(=O)[C@H](CCC(=O)O)NC(=O)[C@H](CO)NC(=O)[C@H](C)NC(=O)CC[C@H](NC(=O)CCCCCCCCCCCCCCCCC(=O)O)C(=O)O)[C@@H](C)O)C(C)C)C(=O)N[C@@H](C)C(=O)N[C@H](C(=O)N[C@@H](CC(C)C)C(=O)N1CCC[C@H]1C(=O)N[C@@H](CCCNC(=N)N)C(=O)N[C@H](C(=O)N[C@@H](CCC(=O)O)C(=O)N[C@H](C(=O)NCC(=O)N[C@@H](CO)C(=O)NCC(=O)N[C@@H](CO)C(=O)N1CCC[C@H]1C(N)=O)[C@@H](C)O)[C@@H](C)O)[C@@H](C)O
notes: also called Ex. #76
B3: [N-terminal(C18 diacid-gGlu), des1, 6T, 9V, 14T, 21E, 30T, 31G, 32T]mimylin (peptide)
peptide: {C18 diacid-γGlu}-ASELTTAVLGRLTAELHELETLPRTETGTGTP-NH2
SMILES: CC(C)C[C@H](NC(=O)[C@H](CCC(=O)O)NC(=O)[C@H](C)NC(=O)[C@@H](NC(=O)[C@H](CC(C)C)NC(=O)[C@H](CCCNC(=N)N)NC(=O)CNC(=O)[C@H](CC(C)C)NC(=O)[C@@H](NC(=O)[C@H](C)NC(=O)[C@@H](NC(=O)[C@@H](NC(=O)[C@H](CC(C)C)NC(=O)[C@H](CCC(=O)O)NC(=O)[C@H](CO)NC(=O)[C@H](C)NC(=O)CC[C@H](NC(=O)CCCCCCCCCCCCCCCCC(=O)O)C(=O)O)[C@@H](C)O)[C@@H](C)O)C(C)C)[C@@H](C)O)C(=O)N[C@@H](Cc1c[nH]cn1)C(=O)N[C@@H](CCC(=O)O)C(=O)N[C@@H](CC(C)C)C(=O)N[C@@H](CCC(=O)O)C(=O)N[C@H](C(=O)N[C@@H](CC(C)C)C(=O)N1CCC[C@H]1C(=O)N[C@@H](CCCNC(=N)N)C(=O)N[C@H](C(=O)N[C@@H](CCC(=O)O)C(=O)N[C@H](C(=O)NCC(=O)N[C@H](C(=O)NCC(=O)N[C@H](C(=O)N1CCC[C@H]1C(N)=O)[C@@H](C)O)[C@@H](C)O)[C@@H](C)O)[C@@H](C)O)[C@@H](C)O
B4: [N-terminal(C18 diacid-gGlu), des1, 30S]mimylin (peptide)
peptide: {C18 diacid-γGlu}-ASELSTAALGRLSAELHELATLPRTETGSESP-NH2
SMILES: CC(C)C[C@H](NC(=O)[C@H](C)NC(=O)[C@H](C)NC(=O)[C@@H](NC(=O)[C@H](CO)NC(=O)[C@H](CC(C)C)NC(=O)[C@H](CCC(=O)O)NC(=O)[C@H](CO)NC(=O)[C@H](C)NC(=O)CC[C@H](NC(=O)CCCCCCCCCCCCCCCCC(=O)O)C(=O)O)[C@@H](C)O)C(=O)NCC(=O)N[C@@H](CCCNC(=N)N)C(=O)N[C@@H](CC(C)C)C(=O)N[C@@H](CO)C(=O)N[C@@H](C)C(=O)N[C@@H](CCC(=O)O)C(=O)N[C@@H](CC(C)C)C(=O)N[C@@H](Cc1c[nH]cn1)C(=O)N[C@@H](CCC(=O)O)C(=O)N[C@@H](CC(C)C)C(=O)N[C@@H](C)C(=O)N[C@H](C(=O)N[C@@H](CC(C)C)C(=O)N1CCC[C@H]1C(=O)N[C@@H](CCCNC(=N)N)C(=O)N[C@H](C(=O)N[C@@H](CCC(=O)O)C(=O)N[C@H](C(=O)NCC(=O)N[C@@H](CO)C(=O)N[C@@H](CCC(=O)O)C(=O)N[C@@H](CO)C(=O)N1CCC[C@H]1C(N)=O)[C@@H](C)O)[C@@H](C)O)[C@@H](C)O
notes: also called Ex. #23
B5: [N-terminal(C18 diacid-gGlu), des1, 30S, 31G, 32P]mimylin (peptide)
peptide: {C18 diacid-γGlu}-ASELSTAALGRLSAELHELATLPRTETGSGPP-NH2
SMILES: CC(C)C[C@H](NC(=O)[C@H](C)NC(=O)[C@H](C)NC(=O)[C@@H](NC(=O)[C@H](CO)NC(=O)[C@H](CC(C)C)NC(=O)[C@H](CCC(=O)O)NC(=O)[C@H](CO)NC(=O)[C@H](C)NC(=O)CC[C@H](NC(=O)CCCCCCCCCCCCCCCCC(=O)O)C(=O)O)[C@@H](C)O)C(=O)NCC(=O)N[C@@H](CCCNC(=N)N)C(=O)N[C@@H](CC(C)C)C(=O)N[C@@H](CO)C(=O)N[C@@H](C)C(=O)N[C@@H](CCC(=O)O)C(=O)N[C@@H](CC(C)C)C(=O)N[C@@H](Cc1c[nH]cn1)C(=O)N[C@@H](CCC(=O)O)C(=O)N[C@@H](CC(C)C)C(=O)N[C@@H](C)C(=O)N[C@H](C(=O)N[C@@H](CC(C)C)C(=O)N1CCC[C@H]1C(=O)N[C@@H](CCCNC(=N)N)C(=O)N[C@H](C(=O)N[C@@H](CCC(=O)O)C(=O)N[C@H](C(=O)NCC(=O)N[C@@H](CO)C(=O)NCC(=O)N1CCC[C@H]1C(=O)N1CCC[C@H]1C(N)=O)[C@@H](C)O)[C@@H](C)O)[C@@H](C)O
notes: also called Ex. #75
B6: [N-terminal(C18 diacid-gGlu), des1, 5V, 9V, 10V, 30S, 31G]mimylin (peptide)
peptide: {C18 diacid-γGlu}-ASEVSTAVVGRLSAELHELATLPRTETGSGSP-NH2
SMILES: CC(C)C[C@H](NC(=O)[C@H](CCC(=O)O)NC(=O)[C@H](Cc1c[nH]cn1)NC(=O)[C@H](CC(C)C)NC(=O)[C@H](CCC(=O)O)NC(=O)[C@H](C)NC(=O)[C@H](CO)NC(=O)[C@H](CC(C)C)NC(=O)[C@H](CCCNC(=N)N)NC(=O)CNC(=O)[C@@H](NC(=O)[C@@H](NC(=O)[C@H](C)NC(=O)[C@@H](NC(=O)[C@H](CO)NC(=O)[C@@H](NC(=O)[C@H](CCC(=O)O)NC(=O)[C@H](CO)NC(=O)[C@H](C)NC(=O)CC[C@H](NC(=O)CCCCCCCCCCCCCCCCC(=O)O)C(=O)O)C(C)C)[C@@H](C)O)C(C)C)C(C)C)C(=O)N[C@@H](C)C(=O)N[C@H](C(=O)N[C@@H](CC(C)C)C(=O)N1CCC[C@H]1C(=O)N[C@@H](CCCNC(=N)N)C(=O)N[C@H](C(=O)N[C@@H](CCC(=O)O)C(=O)N[C@H](C(=O)NCC(=O)N[C@@H](CO)C(=O)NCC(=O)N[C@@H](CO)C(=O)N1CCC[C@H]1C(N)=O)[C@@H](C)O)[C@@H](C)O)[C@@H](C)O
notes: also called Ex. #96
B7: [N-terminal(C18 diacid-gGlu), des1, 6T, 9V, 30S, 31G]mimylin (peptide)
peptide: {C18 diacid-γGlu}-ASELTTAVLGRLSAELHELATLPRTETGSGSP-NH2
SMILES: CC(C)C[C@H](NC(=O)[C@H](CCC(=O)O)NC(=O)[C@H](Cc1c[nH]cn1)NC(=O)[C@H](CC(C)C)NC(=O)[C@H](CCC(=O)O)NC(=O)[C@H](C)NC(=O)[C@H](CO)NC(=O)[C@H](CC(C)C)NC(=O)[C@H](CCCNC(=N)N)NC(=O)CNC(=O)[C@H](CC(C)C)NC(=O)[C@@H](NC(=O)[C@H](C)NC(=O)[C@@H](NC(=O)[C@@H](NC(=O)[C@H](CC(C)C)NC(=O)[C@H](CCC(=O)O)NC(=O)[C@H](CO)NC(=O)[C@H](C)NC(=O)CC[C@H](NC(=O)CCCCCCCCCCCCCCCCC(=O)O)C(=O)O)[C@@H](C)O)[C@@H](C)O)C(C)C)C(=O)N[C@@H](C)C(=O)N[C@H](C(=O)N[C@@H](CC(C)C)C(=O)N1CCC[C@H]1C(=O)N[C@@H](CCCNC(=N)N)C(=O)N[C@H](C(=O)N[C@@H](CCC(=O)O)C(=O)N[C@H](C(=O)NCC(=O)N[C@@H](CO)C(=O)NCC(=O)N[C@@H](CO)C(=O)N1CCC[C@H]1C(N)=O)[C@@H](C)O)[C@@H](C)O)[C@@H](C)O
notes: also called Ex. #85

Numbered stars: 1 amine (or outer) side, 2 acyl side, 3 side chain; on linkers, the order of the positions; unused ones are H or OH. * marks the point of attachment. C20 diacid = O=C(O)CCCCCCCCCCCCCCCCCCC(=O)*; C18 diacid = O=C(O)CCCCCCCCCCCCCCCCC(=O)*; γGlu = O=C(O)[C@H](CCC(=O)[*:2])N[*:1]

This assay addresses T1, human calcitonin receptor. Briefly: whole-cell competition vs 125I-human calcitonin (Assay VIIa). Summed up: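 BHK tk'ts 13 cells stably co-expressing human calcitonin receptor and a CRE-luciferase reporter, seeded overnight at 37 °C. Bound tracer counted by scintillation after cold HBSS washes and NaOH/SDS lysis; IC₅₀ from one-site competition fit taken as receptor affinity.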
As to B1, the IC50 is 1240 pM. With B2 the figure was 855 pM. With B3 the figure was 17300 pM; with {C18 diacid-γGlu}-ASELTTAVLGRLSAELHELATLPRTETGTGTP-NH2 (also called Ex. #95) [[N-terminal(C18 diacid-gGlu), des1, 6T, 9V, 30T, 31G, 32T]mimylin], 1700 pM; with B4, 541 pM. Regarding {C18 diacid-γGlu}-ASEVSTAVLGRLSAELHELATLPRTETGSGSP-NH2 (also called Ex. #86) [[N-terminal(C18 diacid-gGlu), des1, 5V, 9V, 30S, 31G]mimylin], the IC50 came out at 943 pM. With B5 the figure was 20500 pM. With B6 the figure was 767 pM; with {C18 diacid-γGlu}-ASELTTAVLGRLEAELHELTTLPRTETGTGTP-NH2 [[N-terminal(C18 diacid-gGlu), des1, 6T, 9V, 14E, 21T, 30T, 31G, 32T]mimylin], 9150 pM; with B7, 821 pM. The same measure for {C18 diacid-γGlu}-ASELTTAVLGRLSAELHELATLPRTETGSGTP-NH2 (also called Ex. #94) [[N-terminal(C18 diacid-gGlu), des1, 6T, 9V, 30S, 31G, 32T]mimylin]: 651 pM. On to {C20 diacid-γGlu}-ASGLSTAALGRLSAELHELATYPRTETGSGSP-NH2 (also called Ex. #79) [[N-terminal(C20 diacid-gGlu), des1, 4G, 23Y, 30S, 31G]mimylin], for which the concentration for half-maximal inhibition (IC50) worked out at 385 pM.

Usually IC50 stands for the concentration needed to halve the response being measured.
